# Results reported in patent US20070105152.
# Read-outs that look alike come from different tables or passages of the source.
# T1: AcGG(AcK)APRKQ
# T1 sequence: GGKAPRKQ
# T2: AcGG(AcK)APRK
# T2 sequence: GGKAPRK
# T3: AcGG(AcK)APR
# T3 sequence: GGKAPR
# T4: AcGG(AcK)AP
# T4 sequence: GGKAP
# T5: AcKSTGG(AcK)AP
# T5 sequence: KSTGGKAP
# T6: AcSTGG(AcK)APR
# T6 sequence: STGGKAPR
# T7: AcSTGG(AcK)AP
# T7 sequence: STGGKAP
# T8: AcTGG(AcK)APRK
# T8 sequence: TGGKAPRK
# T9: AcTGG(AcK)APR
# T9 sequence: TGGKAPR
# T10: AcTGG(AcK)AP
# T10 sequence: TGGKAP
# T11: AcGG(AcK)AP
# T11 chain: GGKAP
# T12: AcGG(AcK)APR
# T12 chain: GGKAPR
# T13: AcGG(AcK)APRK
# T13 chain: GGKAPRK
# T14: AcGG(AcK)APRKQ
# T14 chain: GGKAPRKQ
# T15: AcKSTGG(AcK)AP
# T15 chain: KSTGGKAP
# T16: AcSTGG(AcK)APR
# T16 chain: STGGKAPR
# T17: AcSTGG(AcK)AP
# T17 chain: STGGKAP
# T18: AcTGG(AcK)APRK
# T18 chain: TGGKAPRK
# T19: AcTGG(AcK)APR
# T19 chain: TGGKAPR
# T20: AcTGG(AcK)AP
# T20 chain: TGGKAP
# B1: SIRT2 (protein)
# chain: MAEPDPSHPLETQAGKVQEAQDSDSDSEGGAAGGEADMDFLRNLFSQTLSLGSQKERLLDELTLEGVARYMQSERCRRVICLVGAGISTSAGIPDFRSPSTGLYDNLEKYHLPYPEAIFEISYFKKHPEPFFALAKELYPGQFKPTICHYFMRLLKDKGLLLRCYTQNIDTLERIAGLEQEDLVEAHGTFYTSHCVSASCRHEYPLSWMKEKIFSEVTPKCEDCQSLVKPDIVFFGESLPARFFSCMQSDFLKVDLLLVMGTSLQVQPFASLISKAPLSTPRLLINKEKAGQSDPFLGMIMGLGGGMDFDSKKAYRDVAWLGECDQGCLALAELLGWKKELEDLVRREHASIDAQSGAGVPNPSTSASPKKSPPPAKDEARTTEREKPQ
# Assays:
# [1] = tested on: T1, AcGG(AcK)APRKQ
# [2] = tested on: T2, AcGG(AcK)APRK
# [3] = tested on: T3, AcGG(AcK)APR
# [4] = tested on: T4, AcGG(AcK)AP
# [5] = tested on: T5, AcKSTGG(AcK)AP
# [6] = tested on: T6, AcSTGG(AcK)APR
# [7] = tested on: T7, AcSTGG(AcK)AP
# [8] = tested on: T8, AcTGG(AcK)APRK
# [9] = tested on: T9, AcTGG(AcK)APR
# [10] = tested on: T10, AcTGG(AcK)AP
# [11] = molecular target: T11, AcGG(AcK)AP
# [12] = molecular target: T12, AcGG(AcK)APR
# [13] = molecular target: T13, AcGG(AcK)APRK
# [14] = molecular target: T14, AcGG(AcK)APRKQ
# [15] = molecular target: T15, AcKSTGG(AcK)AP
# [16] = molecular target: T16, AcSTGG(AcK)APR
# [17] = molecular target: T17, AcSTGG(AcK)AP
# [18] = molecular target: T18, AcTGG(AcK)APRK
# [19] = molecular target: T19, AcTGG(AcK)APR
# [20] = molecular target: T20, AcTGG(AcK)AP
Molecule,Relative kcat/Km (relative to AcTGG(AcK)APRK = 1) [1],Relative kcat/Km (relative to AcTGG(AcK)APRK = 1) [2],Relative kcat/Km (relative to AcTGG(AcK)APRK = 1) [3],Relative kcat/Km (relative to AcTGG(AcK)APRK = 1) [4],Relative kcat/Km (relative to AcTGG(AcK)APRK = 1) [5],Relative kcat/Km (relative to AcTGG(AcK)APRK = 1) [6],Relative kcat/Km (relative to AcTGG(AcK)APRK = 1) [7],Relative kcat/Km (relative to AcTGG(AcK)APRK = 1) [8],Relative kcat/Km (relative to AcTGG(AcK)APRK = 1) [9],Relative kcat/Km (relative to AcTGG(AcK)APRK = 1) [10],Relative kcat/Km (relative to AcTGG(AcK)APRK = 1) [11],Relative kcat/Km (relative to AcTGG(AcK)APRK = 1) [12],Relative kcat/Km (relative to AcTGG(AcK)APRK = 1) [13],Relative kcat/Km (relative to AcTGG(AcK)APRK = 1) [14],Relative kcat/Km (relative to AcTGG(AcK)APRK = 1) [15],Relative kcat/Km (relative to AcTGG(AcK)APRK = 1) [16],Relative kcat/Km (relative to AcTGG(AcK)APRK = 1) [17],Relative kcat/Km (relative to AcTGG(AcK)APRK = 1) [18],Relative kcat/Km (relative to AcTGG(AcK)APRK = 1) [19],Relative kcat/Km (relative to AcTGG(AcK)APRK = 1) [20]
Trypanosoma brucei Sir2,1.43,1.82,1.18,1.27,1.81,1.39,0.59,1,0.89,0.74,–,–,–,–,–,–,–,–,–,–
yeast Sir2,2.09,2.33,2.53,1.51,2.12,1.6,1.83,1,1.72,1.62,–,–,–,–,–,–,–,–,–,–
B1,–,–,–,–,–,–,–,–,–,–,0.56,0.6,0.68,0.66,0.59,0.93,0.78,1,0.72,0.55
